# Measured values as given in US10369195B2, “Methods and compositions for preventing and treating damage to the heart” (MandalMed, Inc., priority 2016, dated 2019).
# “Also recorded” adds a separate entry of the source.
# B1: Gal-3C: N-terminally truncated form of full length galectin-3, lacking the amino-terminal domain but retaining carbohydrate binding ability; 143 carboxy-terminal residues, SEQ ID NO: 3 (protein)
# chain: GAPAGPLIVPYNLPLPGGVVPRMLITILGTVKPNANRIALDFQRGNDVAFHFNPRFNENNRRVIVCNTKLDNNWGREERQSVFPFESGKPFKIQVLVEPDHFKVAVNDAHLLQYNHRVKKLNEISKLGISGDIDITSASYTMI
# Legend:
# [1] = test system: xenograft model of human multiple myeloma; settings: mice; 30 μg/day by ALZET mini-osmotic pumps; cited from earlier work
# [2] = test system: rat ischemia-reperfusion model of MI; assay: Serial echocardiography (ejection fraction, ESV, EDV) after ischemia-reperfusion MI; assay type: in vivo
# Description: Animal experiments to test the therapeutic potential of Gal-3C in the preservation of post-MI cardiac function were performed using surgical induction of MI in rodents and functional evaluation of treatment as previously described (61-66). To most accurately model cardiac damage experienced by MI patients, a well-established ischemia-reperfusion procedure was used in which the left anterior descending coronary artery (LAD) of rats was occluded for 25 min followed by restoration of blood flow (67). This standard MI model is more clinically relevant than permanent LAD ligation models because the reperfusion experienced after post-MI angioplasty not only limits the size of the infarct, but paradoxically introduces free radical damage, and is well validated as a model for post-MI heart failure experimental therapies (68).
# Experiments were performed according to the UCSF guidelines for rodent survival surgery and the Guide for the Care and Use of Laboratory Animals of the US National Institutes of Health. Male Sprague-Dawley rats (age 10-12 weeks) were anesthetized with isoflurane (2%), received analgesics (buprenorphine (0.1 mg/kg), subcutaneous injection) pre- and post-operation, and underwent ischemia-reperfusion MI involving temporary (25 minutes) occlusion of the left anterior descending coronary artery (LAD) to produce regional moderate myocardial ischemia.
# Briefly, rats were ventilated to a small animal volume-controlled ventilator (Harvard Rodent Ventilator, Model 683, South Natick, Mass.), and the heart was exposed via thoracotomy. Occlusion proceeds with a 7-0 nonabsorbable surgical suture passed under the LAD 2-3 mm from tip of the normally positioned left auricle and tied around a 1-mm section of PE-50 tubing, tightening with an artery clamp to temporarily occlude the LAD. After occlusion for 25 minutes, reperfusion was allowed to the formerly ischemic bed. The chest was then closed with removal of excess fluid and air from the chest cavity. All animals were monitored post-operation until they became ambulatory. The mortality during MI procedure was 12%.
# The highest dose, 600 μg/rat/day, and the lowest dose, 200 μg/rat/day, were chosen for continued study, representing approximately 2- and 5.5-fold higher doses based on body surface area of rats than was used in the multiple myeloma study of Gal-3C in mice (70). Groups of rats (n=10) were treated with low (200 μg/day) and high (600 μg/day doses of Gal-3C or with PBS-lactose (vehicle control) administered over 0-6 days post-MI (“early window”; primed pumps were implanted several minutes before the MI procedure on day 0). These groups were designed to be sufficiently powered to detect potentially statistically significant improvement from Gal-3C treatment.
# (§1) Pre-filled and primed mini-osmotic pumps were implanted a few minutes before surgical induction of MI and Gal-3C treatment continued for 7 days (denoted as “early window”) as in the pilot study described above. The effect of treatment on cardiac function was evaluated by serial echocardiography on day 0 pre-MI, 2 and 28 days post-MI, and LV pressure measurement at 28 days. For the early window, groups consisted of sham surgery with PBS, sham with 600 μg/day Gal-3C, MI with PBS, MI with 200 μg/day Gal-3C, and MI with 600 μg/day Gal-3C.
# In a subsequent experiment, the high dose Gal-3C and the PBS control were administered by Alzet pump over a delayed delivery window of from 4 days until 10 days post-MI (denoted as “delayed window”) to rats that had been subjected to the same ischemia-reperfusion procedure as described in Example 2 above. Delayed treatment might better enable fibrotic repair of the infarct while preventing wall rupture. […]
# [3] = test system: rat ischemia-reperfusion model of MI; assay: Intraventricular (LV) pressure / hemodynamic measurements after ischemia-reperfusion MI; assay type: in vivo
# Description: as §1
# Serial echocardiography was performed at 2, 28, and 56 days (8 weeks) post-MI and terminal intraventricular pressure catheter measurements were obtained. The effect on cardiac function from losartan was compared to the effect of Gal-3C that included data from the 12 animals in the Gal-3C and the 12 animals in the vehicle-only group that were presented in FIG. 9 and FIG. 10. […] The results described herein indicate that treatment with Gal-3C post-MI would be more beneficial on recovery and preservation of heart function compared to treatment with losartan or another ARB alone.
# [4] = Gal-3C 600 μg/day days 4-10 vs losartan 8 mg/kg/day 56 days, 15/group
# [5] = delayed window (4-10 days post-MI), 600 μg/day, 28 days post-MI, vs vehicle
# [6] = delayed window Gal-3C, 8 weeks (day 56) post-MI, expanded groups 15/group (FIG. 12)
# [7] = delayed window, 600 μg/day, 8 weeks (day 56) post-MI, vs vehicle, n=12/group
# [8] = early window (0-6 days post-MI), 200 and 600 μg/day, 28 days post-MI, vs PBS
# [9] = 8 weeks post-MI, Gal-3C 600 μg/day days 4-10, losartan 8 mg/kg/day in drinking water 56 days, 15/group
# [10] = delayed window, 600 μg/day, 8 weeks, vs controls, n=12/group
molecule,measurement,setting,value
B1,efficacy in xenograft model of human multiple myeloma,[1],good efficacy
same,"EF, benefit relative to losartan",[2]; [4],statistically significant benefit
same,"ESV, benefit relative to losartan",[2]; [4],statistically significant benefit
same,ESV,[2]; [5],significant benefit; also recorded: statistically significant improvements
same,LV EDV,[2]; [5],no benefit
same,LV ejection fraction,[2]; [5],significant benefit; also recorded: statistically significant improvements
same,EDV,[2]; [6],beneficial effect
same,ESV,[2]; [6],beneficial effect
same,ejection fraction at 8 weeks compared to 4 weeks in treated animals,"[2]; delayed window, 600 μg/day",trend but not a statistically significant increase
same,EDV,[2]; [7],significant benefit
same,ESV,[2]; [7],beneficial effect
same,ejection fraction,[2]; [7],beneficial effect
same,LV end diastolic volume (EDV),[2]; [8],no benefit
same,end systolic volume (ESV),[2]; [8],profound benefit
same,left ventricular ejection fraction,[2]; [8],profound benefit
same,"cardiac function by echocardiography (ejection fraction, ESV, EDV)","[2]; early window treatment, 2 days post-MI",no benefit observed
same,"EF, benefit relative to PBS","[2]; out to 8 weeks post-MI, Gal-3C 600 μg/day days 4-10, losartan 8 mg/kg/day in drinking water 56 days, 15/group",statistically significant benefit
same,"LVEDP, benefit relative to PBS",[3]; [9],statistically significant benefit
same,"LVSP, benefit relative to PBS",[3]; [9],statistically significant benefit
same,"mean ABP, benefit relative to PBS",[3]; [9],statistically significant benefit
same,"LVEDP, benefit relative to losartan",[3]; [4],statistically significant benefit
same,"LVSP, benefit relative to losartan",[3]; [4],statistically significant benefit
same,dP/dt max and dP/dt min,"[3]; delayed window Gal-3C, 8 weeks, expanded groups 15/group (FIG. 13)",did not reach significance
same,LVEDP,[3]; [10],reached significance
same,LVSP,[3]; [10],reached significance
same,dP/dt max,[3]; [10],did not reach significance
same,dP/dt min,[3]; [10],did not reach significance
same,mean ABP,[3]; [10],reached significance
same,"all five hemodynamic parameters (mean ABP, LVSP, LVEDP, dP/dt max, dP/dt min)","[3]; delayed window, 600 μg/day, 28 days, vs vehicle",statistically significant improved
same,"intraventricular pressure measurement (mean ABP, LVSP, LVEDP, dP/dt max, dP/dt min)","[3]; early window, 200 and 600 μg/day, 28 days, vs PBS",did not reach statistical significance
same,"hemodynamic parameters (mean ABP, dp/dt max and min), 600 μg/day compared to 200 μg/day","[3]; early window, 28 days",Trends to greater improvement
